In article doi:10.1101/2024.12.18.629111 (bioRxiv, 2024):
Where a chain is given by its changes, count along the chain named.

T1: FITC-labeled Dcp2-UBD1 peptide (aa 456-479) (S. cerevisiae, UniProt P53550 456-479, FITC on the N-terminus)
T1 peptide (looked up): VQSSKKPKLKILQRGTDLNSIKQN

T2: FITC-labeled Dcp2-UBD2 peptide (aa 694-718) (S. cerevisiae, UniProt P53550 694-718, FITC on the N-terminus)
T2 peptide (looked up): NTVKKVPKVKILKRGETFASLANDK

T3: CBP-Upf1-CH-HD I693R (S. cerevisiae, UniProt P30771 54-851, I693R)
T3 sequence (looked up): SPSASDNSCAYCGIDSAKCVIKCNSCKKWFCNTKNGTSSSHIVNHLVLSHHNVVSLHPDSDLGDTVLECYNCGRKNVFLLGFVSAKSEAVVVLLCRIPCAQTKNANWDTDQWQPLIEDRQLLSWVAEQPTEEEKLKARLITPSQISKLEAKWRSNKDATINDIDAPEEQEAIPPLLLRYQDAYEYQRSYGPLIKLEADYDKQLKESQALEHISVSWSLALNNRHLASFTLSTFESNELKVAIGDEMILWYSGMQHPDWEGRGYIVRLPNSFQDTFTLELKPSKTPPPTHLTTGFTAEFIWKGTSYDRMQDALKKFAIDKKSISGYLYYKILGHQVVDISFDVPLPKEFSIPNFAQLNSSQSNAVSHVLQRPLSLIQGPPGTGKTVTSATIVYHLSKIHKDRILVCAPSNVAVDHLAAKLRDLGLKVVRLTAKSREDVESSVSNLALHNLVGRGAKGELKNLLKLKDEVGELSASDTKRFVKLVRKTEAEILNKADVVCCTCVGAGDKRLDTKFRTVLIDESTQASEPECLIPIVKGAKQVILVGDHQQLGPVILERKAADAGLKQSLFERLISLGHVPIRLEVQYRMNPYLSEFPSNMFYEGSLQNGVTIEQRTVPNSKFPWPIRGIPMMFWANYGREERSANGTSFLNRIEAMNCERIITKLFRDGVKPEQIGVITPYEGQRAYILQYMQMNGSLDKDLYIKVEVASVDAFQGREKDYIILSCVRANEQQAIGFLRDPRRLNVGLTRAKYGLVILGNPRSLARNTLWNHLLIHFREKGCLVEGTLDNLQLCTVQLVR

T4: CBP-Upf1-FL (S. cerevisiae, UniProt P30771 1-971)
T4 sequence (looked up): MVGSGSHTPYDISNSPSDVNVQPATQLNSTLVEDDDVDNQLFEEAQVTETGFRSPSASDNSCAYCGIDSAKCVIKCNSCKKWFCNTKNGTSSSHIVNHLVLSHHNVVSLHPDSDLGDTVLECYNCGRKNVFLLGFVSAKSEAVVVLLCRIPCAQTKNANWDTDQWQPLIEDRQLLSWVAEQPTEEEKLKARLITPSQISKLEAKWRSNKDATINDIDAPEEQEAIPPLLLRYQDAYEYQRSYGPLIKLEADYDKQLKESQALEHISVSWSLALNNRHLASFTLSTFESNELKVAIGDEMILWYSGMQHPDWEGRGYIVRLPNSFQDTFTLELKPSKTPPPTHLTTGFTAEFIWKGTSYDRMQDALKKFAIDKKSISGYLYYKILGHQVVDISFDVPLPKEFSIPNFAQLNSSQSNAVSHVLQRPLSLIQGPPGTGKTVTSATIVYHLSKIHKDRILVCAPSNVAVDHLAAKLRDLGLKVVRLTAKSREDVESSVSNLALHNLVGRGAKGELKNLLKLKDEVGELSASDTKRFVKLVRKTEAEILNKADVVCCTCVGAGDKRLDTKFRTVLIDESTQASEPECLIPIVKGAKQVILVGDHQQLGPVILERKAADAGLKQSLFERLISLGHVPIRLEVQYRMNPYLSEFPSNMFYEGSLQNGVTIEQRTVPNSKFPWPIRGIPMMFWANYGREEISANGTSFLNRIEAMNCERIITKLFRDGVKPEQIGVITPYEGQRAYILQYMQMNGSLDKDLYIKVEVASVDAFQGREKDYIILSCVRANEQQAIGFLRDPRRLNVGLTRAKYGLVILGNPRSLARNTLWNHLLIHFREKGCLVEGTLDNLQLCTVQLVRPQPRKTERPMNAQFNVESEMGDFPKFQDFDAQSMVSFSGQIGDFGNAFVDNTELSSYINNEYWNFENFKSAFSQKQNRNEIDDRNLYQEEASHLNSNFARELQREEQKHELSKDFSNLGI

T5: CBP-Upf1-CH-HD (S. cerevisiae, UniProt P30771 54-851)
T5 sequence (looked up): T3 sequence (looked up) with R640I

B1: CBP-Upf1-CH-His (domain or fragment)
chain: SPSASDNSCAYCGIDSAKCVIKCNSCKKWFCNTKNGTSSSHIVNHLVLSHHNVVSLHPDSDLGDTVLECYNCGRKNVFLLGFVSAKSEAVVVLLCRIPCAQTKNANWDTDQWQPLIEDRQLLSWVAEQPTEEEKLKARLITPSQISKLEAKWRSNKDATINDIDAPE
B2: Upf2(933-1089)-His (domain or fragment, S. cerevisiae, UniProt P38798 933-1089, looked up)
chain: SDSDLEYGGDLDADRDIEMKRMYEEYERKLKDEEERKAEEELERQFQKMMQESIDARKSEKVVASKIPVISKPVSVQKPLLLKKSEEPSSSKETYEELSKPKKIAFTFLTKSGKKTQSRILQLPTDVKFVSDVLEEEEKLKTERNKIKKIVLKRSFD
B3: His-tagged Nmd4 (natural protein, S. cerevisiae, UniProt Q12129 1-218, looked up)
chain: MTQYNFIIDASAFEKGLGNIKRWCSDCTEAVTLNFYIPTFTLNELDFLQQRRKSFAARESLKFIDRLDDSKFANLKVFIEFPEVLDIILWSDVMEHNDSSGKINIAKLPKRLKNLLKSCIYKCYLEGNEGLHWFLISEDPQIREMAMQCNIPSCSIVDVDSILSKDMNDKSFRESEKFNNMMLKNGTKEESENGREIIRTNFNKTVYASRGTGELWSP

What was measured:
[1] = target: the molecule itself; assay: SDS-PAGE band of the dimer
Upf2(933-1089)-His = target: B2; assay: fluorescence polarisation
[2] = target: T1, FITC-labeled Dcp2-UBD1 peptide (aa …); assay: fluorescence polarisation
[3] = target: T2, FITC-labeled Dcp2-UBD2 peptide (aa …); assay: fluorescence polarisation
CBP-Upf1-CH-HD I693R = target: T3, CBP-Upf1-CH-HD I693R; assay: pull-down
CBP-Upf1-FL = target: T4, CBP-Upf1-FL; assay: pull-down
CBP-Upf1-CH-HD = target: T5, CBP-Upf1-CH-HD; assay: native gel or EMSA

Binder: B1
- stoichiometry N [1]: 2
- Kd (Upf2(933-1089)-His): 0.43 µM
- Kd [2]: 60.1 µM
- Kd [3]: 25.1 µM

Binder: B2
- binding result (CBP-Upf1-CH-HD I693R): binds

Binder: B3
- binding result (CBP-Upf1-FL): binds
- binding result (CBP-Upf1-CH-HD): binds
